Consider two molecules from patent publication US6699834B1, “Method for treating cancer” (University of Maryland Biotechnology Institute, priority 1997, dated 2004).

For one assay, the system named is HIV-1 transgenic mice. Briefly: Survival, growth and weight of HIV-1 transgenic mouse pups. The class given is in vivo. Conditions: administered first 5 days after birth through mothers milk. The method, then:
(§1) The HIV-1 transgenic mice used for this study contain 7.4 kb of foreign DNA, including 5.1 kb of the HIV-1 proviral genome deleted in the gag and pol genes and 2.3 kb of vector (Dickie et al., 1991, Virology 185:109-119). […] In addition, these mice develop severe hyperkeratotic skin lesions with marked expression of gp 120 and nef genes (Kopp et al., 1993, AIDS Res. Hum. Retroviruses 9:267-275; Vasli et al., 1994, AIDS Res. Hum. Retroviruses 10:1241-1250).
Finally, certain fractions were tested for their ability to increase survival, promote weight gain and reduce HIV-1 gene expression in HIV-1 transgenic mice as described herein.
HIV-I transgenic pups administered hCG and hCG-related preparations for the first 5 days after birth through the mothers milk were monitored for survival at 10 days after birth.

The test system of assay [1] is hematopoietic progenitor cells. Briefly: Hematopoietic progenitor clonogenic assays (CFU-GEMM, BFU-e, CFU-GM). Format: cell-based, human. Conditions: for Pro-hematopoiesis in vitro Enhancement: relative increase of hematopoietic colony cell number, hCG preparations 200 IU/ml, subunits and peptides 100 μg/ml. The procedure: The effect of hCG preparations and peptides was assayed on hematopoietic progenitor cells in vitro: Hematopoietic progenitor cells (2×10^5 cell/ml) were isolated from normal bone marrow and cord blood and seeded in methylcellulose. […] The hCG preparations were administered at 200 IU/ml and the β- and α-subunits and peptides were administered at 100 μg/ml. The native commercial preparation of hCG (APL™, Wyeth Ayerst) was pre-tested for anti-HIV and anti-KS activities. Aggregates containing more than 50 cells after 10 days of culture were counted as colonies.

Assay [2] deals with HIV RNA and protein expression. Briefly: HIV RNA and protein expression in HIV-1 transgenic mice. The conditions noted are these: inhibition of HIV RNA and protein expression in HIV-1 transgenic mice. The class given is in vivo.
From the text: as §1
Heterozygous transgenic mothers were treated with the hCG preparation subcutaneously twice weekly. Pups received hCG via the mother's milk.
Gene expression was assayed in total RNA extracted from the skin of Tg26 mice with RNAzol. One microgram of RNA was reverse transcribed into cDNA using random hexamer primers and […] reverse transcriptase (Life Technologies, MD) in a final volume of 30 μl. One tenth of the cDNA reactions were used for PCR amplification of various HIV gene sequences (env, tat, rev, nef and vif). In addition, glyceraldehyde 3-phosphate dehydrogenase (GAPHD) mRNA was amplified for each sample for normalization. […] Detection was performed by chemiluminescence (Amersham) and relative mRNA levels determined by densitometry after normalization with GAPDH mRNA levels. […]

The test system of another assay is KS Y-1 and KS-SLK cells. Briefly: Kaposi's Sarcoma clonogenic assay in cultured cells. Format: cell-based, human. The conditions noted are these: for KS in vitro: inhibition of Kaposi's Sarcoma cell growth in vitro in cultured cells. The method, then: Briefly, the KS Y-1 cells were obtained from mononuclear cells isolated from pleural effusion of an AIDS patient with KS in the lungs. After the depletion of T lymphocytes, monocytes/macrophages and fibroblasts using monoclonal antibodies against CD2, CD3, CD4, CD8, CD10 and CD14 membrane antigens and baby rabbit complement, the cells were cultured in the absence of exogenous growth factors to select for transformed cells. […] Clonogenic assays were performed by seeding the KS Y-1 or KS-SLK cells in methylcellulose (0.8%, v/v), incubating the cells for 10 days in the presence or absence of the hCC, β-hCG or β-hCG peptide preparations and then counting the number of well-formed colonies of triplicate wells formed after seeding with 5×10^4 cells.
To assay for activity against Kaposi's sarcoma cell growth in vitro, the clonogenic assay described herein was used with the KS Y-1 and KS-SLK cultured Kaposi's Sarcoma cell lines,.

The subject of assay [3] is Kaposi's Sarcoma induced in mice. Briefly: Kaposi's Sarcoma tumors induced in mice by KS Y-1 cells. Format: in vivo. The conditions noted are these: inhibition of Kaposi's Sarcoma induced in mice. The method, then:
The effects of the peptides on KS tumor cells were also evaluated in vivo in the KS mouse model. To induce KS tumors in the mice, 1×10^6/ml KS Y-1 cells in 50 μl PBS or saline were injected subcutaneously into immunodeficient mice (beige-XID-BNX mice). […] Methods for detection of apoptosis (from tissue biopsies) were used, as described in Lunardi-Iskandar et al.(1995, Nature 375:64-68). Briefly, the samples were stained in situ for the presence of cells with DNA fragmentation. Tissue slides from formalin-fixed tumors were treated with terminal deoxynucleotide transferase for extension of DNA ends (hydroxyl 3′) and incorporation of digoxigenin-11-dUTP according to the manufacturer's instructions (Oncor, Gaithersburg, Md.). Anti-digoxigenin antibody conjugated with the enzyme peroxidase allowed detection of apoptotic cells, which stain brown, whereas viable cells stain blue.
Certain fractions were tested for activity in reducing Kaposi's Sarcoma lesions in the Kaposi's Sarcoma mouse model as described herein. In this assay, starting one week after injection of the KS Y-1 cells to induce Kaposi's sarcoma formation, the mice were injected subcutaneously with 100 IU hCG. […] After one week of the week of treatment with the hCG fractions, the KS lesions were examined for cell apoptosis and regression as described herein. […]

The next assay concerns HIV-1. Conditions: for HIV in vitro Inhibition: inhibition of HIV-1 replication in vitro (HIV-1 strains and HIV-1 primary isolates). The source says: To prepare HIV infected cells for the in vitro assay of hCG preparations and β-hCG peptides and derivatives, primary PBMCs, macrophages, and CD4^+ T cells isolated from peripheral blood and the H9 human T cell line, were acutely or chronically infected with 8 different HIV-1 strains: 4 cell line adapted viruses, namely the macrophage tropic Ba-L strain (Gartner et al., 1986, Science 233:215-219) and the CD4^+ T cell tropic MN, RF, and IIIB strains (10^5 TCID50/ml) (Popovic et al., 1984, Science […]; Gallo et al.; 1984, Science 224:500-503); 2 isolates, Ju1083 and G3, from Nigerian AIDS patients passed once in a CD4^+ T cell line (Sub-T1); and 2 primary (“clinical”) isolates from AIDS patients from Trinidad which were never passed in any cell line and were used at a titer of 7.5×10^4TCID50/ml. In all experiments; HIV1 (10^5 TCID50/ml) was added to the cells(10^6 cells/ml) for a 2 hour incubation after which the virus infected cells were washed with 10 ml phosphate buffered saline (PBS) three times to eliminate extra cellular virus. The test inhibitor, i.e. the hCG or β-hCG peptide preparation was then added and the cells were incubated with the test inhibiter for 9 to 10 days with serial sampling. Cultures were assayed for p24 antigen on days 3 to 10.
Peptides of the α- and β-subunits (0.05 to 50 nmoles/ml), native α chain preparation, and various crude preparations of the native hCG heterodimer (0.01 to 1,000 IU) and the native β-hCG subunit (100 to 1,000 μg) were tested for effects on HIV-1 replication in acutely infected cells-by measuring change in viral antigen levels in response to the above noted preparations (FIGS. 4A-D and Table 3).
The fractions were then tested for anti-HIV, anti-KS and pro-hematopoietic activities in vitro. To assay for inhibition of HIV-1 replication in vitro, the HIV-1 […] viral strain was used to infect PBMCs and PM-1 cells (derived from the HUT-78 T-cell lymphoma cell line) at 10^3 TCID50/ml as described in detail herein.

B1: rβhCG: recombinant β subunit expressed in mouse cells (Sigma) (protein, UniProt P0DN86 21-165, looked up)
Choriogonadotropin subunit …: SKEPLRPRCRPINATLAVEKEGCPVCITVNTTICAGYCPTMTRVLQGVLPALPQVVCNYRDVRFESIRLPGCPRGVNPVVSYAVALSCQCALCRRSTTDCGGPKDHPLTCDDPRFQDSSSSKAPPPSLPSPSRLPGPSDTPILPQ
As for B1, in the assay on HIV-1 transgenic mice, the “survival at 10 days after birth” value is recorded as “failed to promote survival”. Further, in assay [1], the “Pro-hematopoiesis in vitro Enhancement” value is reported as “− (“−” represents less than 10% effect)”. Also, the “inhibition of HIV RNA and protein expression” value in assay [2] was “− (“−” represents less than 10% effect)”. Besides, in the assay with KS Y-1 and KS-SLK cells, the KS in vitro result was “− (“−” represents less than 10% effect)”. Besides, in assay [3], the KS in vivo result is recorded as “− (“−” represents less than 10% effect)”. Also, in the assay with HIV-1, the “inhibition of HIV-1 infection/replication in vitro (in words)” value is “not to be active” and the “HIV in vitro Inhibition” value is “− (“−” represents less than 10% effect)”.

B2: βhCG: purified native β subunit of hCG (Sigma) (protein, UniProt P0DN86 21-165, looked up)
Choriogonadotropin subunit …: SKEPLRPRCRPINATLAVEKEGCPVCITVNTTICAGYCPTMTRVLQGVLPALPQVVCNYRDVRFESIRLPGCPRGVNPVVSYAVALSCQCALCRRSTTDCGGPKDHPLTCDDPRFQDSSSSKAPPPSLPSPSRLPGPSDTPILPQ
modifications: native beta subunit only
Take B2: in the assay with HIV-1 transgenic mice, the “survival at 10 days after birth” value is on record as “promote survival”. In addition, the “promotion of hematopoiesis (in words)” value in assay [1] (listed as native β-hCG) is “pro-hematopoietic activity”. The “promotion of hematopoiesis (in words)” value in assay [1] (listed as partially purified native β-chain) was “directly promoted”. The “Pro-hematopoiesis in vitro Enhancement” value in assay [1] is “++ (“++” represents greater than 40% effect)”. In addition, in assay [2], the “inhibition of HIV RNA and protein expression” value is given as “++ (“++” represents greater than 40% effect)”. Also, the “inhibition of KS cell growth in clonogenic assays (in words)” value in the assay on KS Y-1 and KS-SLK cells (KS Y-1 and KS SLK) was “moderately well”. Moreover, the KS in vitro result in the assay on KS Y-1 and KS-SLK cells was “++ (“++” represents greater than 40% effect)”. In addition, in assay [3], the KS in vivo entry is on record as “++ (“++” represents greater than 40% effect)”. Also, in the assay on HIV-1, the “inhibition of HIV-1 infection/replication in vitro (in words)” value is recorded as “active” and the “HIV in vitro Inhibition” value is “++ (“++” represents greater than 40% effect)”.
